According to PMC11487272 (Nature Communications, 2024):
Positions count from the first letter of the chain named. Names and notes keep the numbering of the source. Blank lines part the entries; values can stand above or below the binder they belong to.

Key:
[1] = target: T1, His-tagged full-length FADD F25Y (UniProt Q13158 1-208, F25Y); assay: pull-down
T1 sequence: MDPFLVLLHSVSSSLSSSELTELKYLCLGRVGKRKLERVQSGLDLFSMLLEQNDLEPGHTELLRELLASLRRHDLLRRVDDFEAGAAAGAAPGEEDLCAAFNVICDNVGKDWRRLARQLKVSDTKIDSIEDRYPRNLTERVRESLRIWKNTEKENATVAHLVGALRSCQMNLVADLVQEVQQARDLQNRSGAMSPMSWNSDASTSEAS

[2] = target: wild-type cFLIP^tDED (residues 1-181) (UniProt O15519 1-181); assay: crystal structure
cryo-EM structure = target: the molecule itself; assay: cryo-EM structure
[3] = target: full-length Casp-8 F122G/L123G/C360A/D374A/D384A (UniProt Q14790 1-479, F122G | L123G | C360A | D374A | D384A); assay: co-purification

binding result [1]: binds
B1: binary CF^H7G-C8^FGLG complex, His-tag removed, SEC-purified (complex)
chain 1: […]
chain 2: MDFSRNLYDIGEQLDSEDLASLKFLSLDYIPQRKQEPIKDALMLFQRLQEKRMLEESNLSFLKELLFRINRLDLLITYLNTRKEEMERELQTPGRAQISAYRVMLYQISEEVSRSELRSFKGGLQEEISKCKLDDDMNLLDIFIEMEKRVILGEGKLDILKRVCAQINKSLLKIINDYEEFSKER

binding result [2]: binds
B2: Casp-8^tDED_FGLG (procaspase-8 tandem DED, residues 1-185, F122G/L123G) (domain or fragment)
chain: B1 chain 2

binding result [3]: binds
B3: His-tagged full-length FADD F25G (natural protein)
chain: T1 sequence with Y25G
stoichiometry N (cryo-EM structure): 3 molecules in the complex
